Laboratory results published in paper PMC6547412.

T1: eIF4B (yeast, UniProt P34167 1-436)
T1 sequence: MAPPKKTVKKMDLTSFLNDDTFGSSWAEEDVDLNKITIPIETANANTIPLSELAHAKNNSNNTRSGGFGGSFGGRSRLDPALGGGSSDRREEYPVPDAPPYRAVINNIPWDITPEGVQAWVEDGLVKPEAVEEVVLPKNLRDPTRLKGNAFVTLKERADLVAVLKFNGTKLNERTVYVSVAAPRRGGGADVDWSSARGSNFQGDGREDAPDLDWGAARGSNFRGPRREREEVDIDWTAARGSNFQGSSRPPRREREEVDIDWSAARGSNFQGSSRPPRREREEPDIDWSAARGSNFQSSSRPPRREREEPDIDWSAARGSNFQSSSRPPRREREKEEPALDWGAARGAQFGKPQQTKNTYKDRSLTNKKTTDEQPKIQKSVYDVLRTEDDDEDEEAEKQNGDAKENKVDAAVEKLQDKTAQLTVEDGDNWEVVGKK

T2: eIF4A;eIF4B;eIF4G-MC (eIF4G) (yeast;yeast;yeast, UniProt P10081;P34167;P39935 1-395;1-436;572-952, ||)
T2 sequence 1: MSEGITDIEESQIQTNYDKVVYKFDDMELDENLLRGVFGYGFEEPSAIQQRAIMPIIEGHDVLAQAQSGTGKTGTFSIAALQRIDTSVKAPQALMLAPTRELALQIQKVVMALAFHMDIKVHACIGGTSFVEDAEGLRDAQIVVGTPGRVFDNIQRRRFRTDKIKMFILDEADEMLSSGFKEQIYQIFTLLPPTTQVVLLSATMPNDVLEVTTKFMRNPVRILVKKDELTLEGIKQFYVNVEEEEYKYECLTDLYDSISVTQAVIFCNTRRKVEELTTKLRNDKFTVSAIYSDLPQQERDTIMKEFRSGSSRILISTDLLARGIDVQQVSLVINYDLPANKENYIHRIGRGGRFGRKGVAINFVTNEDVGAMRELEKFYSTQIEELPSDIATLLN
T2 sequence 2: T1 sequence
T2 sequence 3: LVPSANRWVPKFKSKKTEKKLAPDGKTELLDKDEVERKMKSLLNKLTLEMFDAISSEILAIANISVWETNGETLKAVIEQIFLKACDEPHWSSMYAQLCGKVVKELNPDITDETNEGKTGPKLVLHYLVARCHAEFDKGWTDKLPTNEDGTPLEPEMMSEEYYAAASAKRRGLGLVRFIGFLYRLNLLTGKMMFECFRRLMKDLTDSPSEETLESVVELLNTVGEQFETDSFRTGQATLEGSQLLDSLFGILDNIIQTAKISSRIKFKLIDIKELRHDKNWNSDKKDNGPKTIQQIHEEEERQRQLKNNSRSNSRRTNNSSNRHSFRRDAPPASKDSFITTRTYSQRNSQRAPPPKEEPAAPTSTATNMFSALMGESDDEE

T3: eIF4A;eIF4G-MC (eIF4G) (yeast;yeast, UniProt P10081;P39935 1-395;572-952, |)
T3 sequence 1: T2 sequence 1
T3 sequence 2: T2 sequence 3

T4: eIF4G-MC (eIF4G) (yeast, UniProt P39935 572-952)
T4 sequence: T2 sequence 3

B1: 30/10mer RNA (dsRNA)
RNA 1: GGGGAGAAAAACUAGCACCGUAAAGCACGC
RNA 2: GCUUUACGGU
B2: 20/10mer RNA (dsRNA)
RNA 1: ACUAGCACCGUAAAGCACGC
RNA 2: GCUUUACGGU

Experiments:
eIF4B = molecular target: T1, eIF4B; test: EMSA
[1] = molecular target: T2, eIF4A;eIF4B;eIF4G-MC (eIF4G); test: fluorescence anisotropy
eIF4A;eIF4G-MC (eIF4G) = molecular target: T3, eIF4A;eIF4G-MC (eIF4G); test: EMSA
eIF4G-MC (eIF4G) = molecular target: T4, eIF4G-MC (eIF4G); test: EMSA

| Binder | binding result (eIF4B) | Kd [1] [nM] | binding result (eIF4A;eIF4G-MC (eIF4G)) | binding result (eIF4G-MC (eIF4G)) |
| --- | --- | --- | --- | --- |
| B1 | binds | 1200 ± 300 |  |  |
| B2 |  | 3500 ± 500 | binds | no binding |
